{"source": "patent US20230416383A1", "assay_in_all_cases": "SPR, mean +/- SD (n = 3)", "key": {"[1]": {"molecular_target": "Cynomolgus FcγRIII (cynomolgus monkey) (UniProt Q8SPW2)", "sequence (Q8SPW2 17-208 limits assumed)": "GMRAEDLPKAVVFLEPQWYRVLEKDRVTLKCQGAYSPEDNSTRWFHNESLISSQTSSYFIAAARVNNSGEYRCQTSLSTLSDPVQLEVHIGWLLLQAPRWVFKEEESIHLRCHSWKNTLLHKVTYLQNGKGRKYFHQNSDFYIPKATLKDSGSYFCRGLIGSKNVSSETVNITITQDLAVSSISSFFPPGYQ"}, "[2]": {"molecular_target": "recombinant Human Fc gamma RIIIA/CD16a (V176F) (human) (UniProt P08637)"}, "[3]": {"molecular_target": "recombinant Human Fc gamma RIIIA/CD16a (V176) (human) (UniProt P08637)"}, "[4]": {"molecular_target": "Cynomolgus FcγRIIb (cynomolgus monkey)"}, "[5]": {"molecular_target": "Cynomolgus FcγRIIa (cynomolgus monkey)"}, "[6]": {"molecular_target": "Human FcγRIIa (human) (UniProt P12318)", "sequence (P12318 36-218 limits assumed)": "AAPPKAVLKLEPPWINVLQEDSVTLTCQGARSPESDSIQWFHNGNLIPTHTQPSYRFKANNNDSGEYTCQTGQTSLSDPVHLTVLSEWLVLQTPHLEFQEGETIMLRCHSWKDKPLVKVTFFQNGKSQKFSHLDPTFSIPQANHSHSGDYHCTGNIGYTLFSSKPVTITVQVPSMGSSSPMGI"}, "[7]": {"molecular_target": "Human FcγRIIb (human) (UniProt P31994)", "sequence (P31994 46-217 limits assumed)": "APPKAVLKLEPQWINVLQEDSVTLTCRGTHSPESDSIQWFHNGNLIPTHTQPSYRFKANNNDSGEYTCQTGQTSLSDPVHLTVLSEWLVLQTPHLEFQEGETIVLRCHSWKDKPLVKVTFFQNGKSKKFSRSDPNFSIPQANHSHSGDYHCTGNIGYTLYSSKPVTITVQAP"}, "[8]": {"molecular_target": "Cynomolgus FcγRI (cynomolgus monkey)"}, "[9]": {"molecular_target": "Cynomolgus FcRn (cynomolgus monkey) (UniProt Q8SPV9)"}, "[10]": {"molecular_target": "human FcγRI (hCD64) (human) (UniProt P12314)", "sequence (P12314 16-288 limits assumed)": "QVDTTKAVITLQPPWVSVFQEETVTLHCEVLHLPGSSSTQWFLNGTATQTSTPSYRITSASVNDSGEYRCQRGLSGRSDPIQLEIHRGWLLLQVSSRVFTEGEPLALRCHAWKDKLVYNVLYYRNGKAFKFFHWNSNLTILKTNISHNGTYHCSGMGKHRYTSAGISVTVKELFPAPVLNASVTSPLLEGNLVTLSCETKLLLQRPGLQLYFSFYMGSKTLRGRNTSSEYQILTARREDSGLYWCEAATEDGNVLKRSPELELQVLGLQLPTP"}, "[11]": {"molecular_target": "Human FcγRIIIb (human) (UniProt O75015)", "sequence (O75015 17-200 limits assumed)": "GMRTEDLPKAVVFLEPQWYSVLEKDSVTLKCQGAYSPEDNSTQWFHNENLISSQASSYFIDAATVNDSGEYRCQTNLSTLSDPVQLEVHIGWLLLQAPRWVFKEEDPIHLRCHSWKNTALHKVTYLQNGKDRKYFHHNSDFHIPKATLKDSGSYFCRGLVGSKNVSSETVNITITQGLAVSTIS"}}, "data": [{"substance": "Human IgG1 control (antibody)", "values": [{"measurement": "Kd", "setting": "[1]", "result": 580, "unit": "nM"}, {"measurement": "Kd", "setting": "[2]", "result": 2820, "unit": "nM"}, {"measurement": "Kd", "setting": "[3]", "result": 575, "unit": "nM"}, {"measurement": "Kd", "setting": "[4]", "result": 2320, "unit": "nM"}, {"measurement": "Kd", "setting": "[5]", "result": 6340, "unit": "nM"}, {"measurement": "Kd", "setting": "[6]", "result": 1570, "unit": "nM"}, {"measurement": "Kd", "setting": "[7]", "result": 4230, "unit": "nM"}, {"measurement": "Kd", "setting": "[8]", "result": 18, "unit": "nM"}, {"measurement": "Kd", "setting": "[9]", "result": 237, "unit": "nM"}, {"measurement": "Kd", "setting": "[10]", "result": 0.2, "unit": "nM"}, {"measurement": "Kd", "setting": "[11]", "result": 7540, "unit": "nM"}]}]}
